Experimental data from US20220017612A1 (TILOS THERAPEUTICS, published 2022).

Target: T1, human LAP-TGFβ1 overexpressed on cells (human, UniProt P01137 30-390)
T1 construct: HT1080 or P3U1 cells overexpressing wild-type human LAP-TGFβ1; also called HT1080-huB1; HT1080-hβ1
Test: flow cytometry; black bar HT1080-huB1, grey bar HT1080

T1 sequence (P01137 30-390): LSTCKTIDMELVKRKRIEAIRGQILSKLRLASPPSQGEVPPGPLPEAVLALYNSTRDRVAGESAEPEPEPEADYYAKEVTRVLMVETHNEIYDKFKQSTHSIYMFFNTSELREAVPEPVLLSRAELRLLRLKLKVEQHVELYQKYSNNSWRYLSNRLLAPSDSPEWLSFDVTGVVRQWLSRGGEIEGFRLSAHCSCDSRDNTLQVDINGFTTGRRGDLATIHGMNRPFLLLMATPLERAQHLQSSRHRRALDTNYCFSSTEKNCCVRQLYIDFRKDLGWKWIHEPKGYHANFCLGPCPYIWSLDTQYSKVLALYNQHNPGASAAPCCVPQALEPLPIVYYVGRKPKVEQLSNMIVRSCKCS

Row | Binder | binding result
1 | L48V_WT (antibody, human IgG1, kappa, V domains shown, also called 28G11_H2L3 with HC L48V) VH: EVQLVESGGGLVQPGGSLRLSCAASGFTFTDYYMSWVRQAPGKGLEWVGFIRNKPNGYTTEYSASVKGRFTISRDNSQSSLYLQMNSLKTEDTAVYYCARYTGGGYFDYWGQGTLLTVSS VL: DIQMTQSPSSLSASVGDRLTISCRASQDISNYLNWYQQKPGKTVKLLIYYTSRLHSGVPSRFSGSGSGTDYTLTISSLQPEDVATYFCQQGDTLPWTFGQGTKLEIKR | binds
2 | L48V_F87Y (antibody, human IgG1, kappa, V domains shown, also called 28G11_H2L3 with HC L48V and LC F87Y) VH: EVQLVESGGGLVQPGGSLRLSCAASGFTFTDYYMSWVRQAPGKGLEWVGFIRNKPNGYTTEYSASVKGRFTISRDNSQSSLYLQMNSLKTEDTAVYYCARYTGGGYFDYWGQGTLLTVSS VL: DIQMTQSPSSLSASVGDRLTISCRASQDISNYLNWYQQKPGKTVKLLIYYTSRLHSGVPSRFSGSGSGTDYTLTISSLQPEDVATYYCQQGDTLPWTFGQGTKLEIKR | binds
3 | L48V_V44P (antibody, human IgG1, kappa, V domains shown, also called 28G11_H2L3 with HC L48V and LC V44P) VH: EVQLVESGGGLVQPGGSLRLSCAASGFTFTDYYMSWVRQAPGKGLEWVGFIRNKPNGYTTEYSASVKGRFTISRDNSQSSLYLQMNSLKTEDTAVYYCARYTGGGYFDYWGQGTLLTVSS VL: DIQMTQSPSSLSASVGDRLTISCRASQDISNYLNWYQQKPGKTPKLLIYYTSRLHSGVPSRFSGSGSGTDYTLTISSLQPEDVATYFCQQGDTLPWTFGQGTKLEIKR | binds
4 | N73D_F87Y (antibody, human IgG1, kappa, V domains shown, label to be rechecked; also called 28G11_H2L3 with HC N73D and LC F87Y) VH: EVQLVESGGGLVQPGGSLRLSCAASGFTFTDYYMSWVRQAPGKGLEWLGFIRNKPNGYTTEYSASVKGRFTISRDDSQSSLYLQMNSLKTEDTAVYYCARYTGGGYFDYWGQGTLLTVSS VL: DIQMTQSPSSLSASVGDRLTISCRASQDISNYLNWYQQKPGKTVKLLIYYTSRLHSGVPSRFSGSGSGTDYTLTISSLQPEDVATYYCQQGDTLPWTFGQGTKLEIKR | no binding
5 | L109V_F87Y (antibody, human IgG1, kappa, V domains shown, also called 28G11_H2L3 with HC L109V and LC F87Y) VH: EVQLVESGGGLVQPGGSLRLSCAASGFTFTDYYMSWVRQAPGKGLEWLGFIRNKPNGYTTEYSASVKGRFTISRDNSQSSLYLQMNSLKTEDTAVYYCARYTGGGYFDYWGQGTLVTVSS VL: DIQMTQSPSSLSASVGDRLTISCRASQDISNYLNWYQQKPGKTVKLLIYYTSRLHSGVPSRFSGSGSGTDYTLTISSLQPEDVATYYCQQGDTLPWTFGQGTKLEIKR | binds
6 | L109V_T43V (antibody, human IgG1, kappa, V domains shown, also called 28G11_H2L3 with HC L109V and LC T43V) VH: EVQLVESGGGLVQPGGSLRLSCAASGFTFTDYYMSWVRQAPGKGLEWLGFIRNKPNGYTTEYSASVKGRFTISRDNSQSSLYLQMNSLKTEDTAVYYCARYTGGGYFDYWGQGTLVTVSS VL: DIQMTQSPSSLSASVGDRLTISCRASQDISNYLNWYQQKPGKVVKLLIYYTSRLHSGVPSRFSGSGSGTDYTLTISSLQPEDVATYFCQQGDTLPWTFGQGTKLEIKR | binds

Target: biotinylated human LAP-TGFβ1 (Example 14) (human, UniProt P01137 30-390, biotinylated, sites not stated)
Sequence (P01137 30-390 limits assumed): as the sequence (P01137 30-390) above
Test: BLI, antigen on tip, CHO supernatant; ratio to wild type
Description: A total of 49 single alanine substitutions were made in the heavy and light chain CDRs of the antibody to identify critical residues for human LAP-TGFβ1 binding. In addition, residue A25 in the light chain was substituted with glycine. Plasmid DNA for these variants was transfected into ExpiCHO cells in 1 mL cultures on 24-well plates, along with wells containing no DNA (negative control) and wells transfected with DNA for the wild-type antibody (positive control). IgG concentrations in each well were determined by binding to Protein A-functionalized tips. Tips were dipped into wells containing the supernatants from each culture. IgG concentrations were determined by comparing the rate of signal change for each well against the rate of signal change for a standard curve of purified 20E6_H0.2aL1_hIgG1 antibody diluted into ExpiCHO media. CHO supernatants were diluted to 0.6 μg/mL in media. A streptavidin-functionalized tip was equilibrated in binding buffer (10 mM sodium phosphate, 150 mM sodium chloride, 1% (w/v) bovine serum albumin, 0.05% (w/v) sodium azide, pH 7.4) and then dipped in a 5 μg/mL solution of biotinylated human LAP-TGFβ1 in binding buffer for 60 seconds to load the tip with antigen. The antigen-loaded tip was then washed in binding buffer and placed in the diluted CHO supernatant. The antigen was allowed to bind to antibody for 5 minutes (association phase), and then the tip was moved to binding buffer (dissociation phase). The association and dissociation phases were fit to a 1:1 binding model to determine binding rate constants.

Row | Binder | KD,WT/KD,Ala
7 | 20E6_H0.2aL1_hIgG1 VH_Y27A (antibody, V domains shown) VH: EVQLVQSGAEVKKPGASVKVSCKASGATFTSYWMHWVRQAPGQGLEWMGRIDPQSGGIKYAQKFQGRATLTVDTSTSTAYMELSRLRSDDTAVYYCARWDYGGYFDVWGQGTLVTVSS VL: DIQMTQSPSSLSASVGDRVTITCRASQDITNYLNWYQQKPGKAVKLLIYYTSRLHSGVPSRFSGSGSGTDYTLTISSLQPEDFATYFCQQGDTLPWTFGQGTKLEIKR | 1.29
8 | 20E6_H0.2aL1_hIgG1 VL_R24A (antibody, V domains shown) VH: EVQLVQSGAEVKKPGASVKVSCKASGYTFTSYWMHWVRQAPGQGLEWMGRIDPQSGGIKYAQKFQGRATLTVDTSTSTAYMELSRLRSDDTAVYYCARWDYGGYFDVWGQGTLVTVSS VL: DIQMTQSPSSLSASVGDRVTITCAASQDITNYLNWYQQKPGKAVKLLIYYTSRLHSGVPSRFSGSGSGTDYTLTISSLQPEDFATYFCQQGDTLPWTFGQGTKLEIKR | 0.01
9 | 20E6_H0.2aL1_hIgG1 VL_H55A (antibody, V domains shown) VH: EVQLVQSGAEVKKPGASVKVSCKASGYTFTSYWMHWVRQAPGQGLEWMGRIDPQSGGIKYAQKFQGRATLTVDTSTSTAYMELSRLRSDDTAVYYCARWDYGGYFDVWGQGTLVTVSS VL: DIQMTQSPSSLSASVGDRVTITCRASQDITNYLNWYQQKPGKAVKLLIYYTSRLASGVPSRFSGSGSGTDYTLTISSLQPEDFATYFCQQGDTLPWTFGQGTKLEIKR | 0.33
10 | 20E6_H0.2aL1_hIgG1 VL_L54A (antibody, V domains shown) VH: EVQLVQSGAEVKKPGASVKVSCKASGYTFTSYWMHWVRQAPGQGLEWMGRIDPQSGGIKYAQKFQGRATLTVDTSTSTAYMELSRLRSDDTAVYYCARWDYGGYFDVWGQGTLVTVSS VL: DIQMTQSPSSLSASVGDRVTITCRASQDITNYLNWYQQKPGKAVKLLIYYTSRAHSGVPSRFSGSGSGTDYTLTISSLQPEDFATYFCQQGDTLPWTFGQGTKLEIKR | 0.1
11 | 20E6_H0.2aL1_hIgG1 VL_R53A (antibody, V domains shown) VH: EVQLVQSGAEVKKPGASVKVSCKASGYTFTSYWMHWVRQAPGQGLEWMGRIDPQSGGIKYAQKFQGRATLTVDTSTSTAYMELSRLRSDDTAVYYCARWDYGGYFDVWGQGTLVTVSS VL: DIQMTQSPSSLSASVGDRVTITCRASQDITNYLNWYQQKPGKAVKLLIYYTSALHSGVPSRFSGSGSGTDYTLTISSLQPEDFATYFCQQGDTLPWTFGQGTKLEIKR | 0.02
12 | 20E6_H0.2aL1_hIgG1 VL_T30A (antibody, V domains shown) VH: EVQLVQSGAEVKKPGASVKVSCKASGYTFTSYWMHWVRQAPGQGLEWMGRIDPQSGGIKYAQKFQGRATLTVDTSTSTAYMELSRLRSDDTAVYYCARWDYGGYFDVWGQGTLVTVSS VL: DIQMTQSPSSLSASVGDRVTITCRASQDIANYLNWYQQKPGKAVKLLIYYTSRLHSGVPSRFSGSGSGTDYTLTISSLQPEDFATYFCQQGDTLPWTFGQGTKLEIKR | 1
13 | 20E6_H0.2aL1_hIgG1 VL_N31A (antibody, V domains shown) VH: EVQLVQSGAEVKKPGASVKVSCKASGYTFTSYWMHWVRQAPGQGLEWMGRIDPQSGGIKYAQKFQGRATLTVDTSTSTAYMELSRLRSDDTAVYYCARWDYGGYFDVWGQGTLVTVSS VL: DIQMTQSPSSLSASVGDRVTITCRASQDITAYLNWYQQKPGKAVKLLIYYTSRLHSGVPSRFSGSGSGTDYTLTISSLQPEDFATYFCQQGDTLPWTFGQGTKLEIKR | 0.48
14 | 20E6_H0.2aL1_hIgG1 VL_Q89A (antibody, V domains shown) VH: EVQLVQSGAEVKKPGASVKVSCKASGYTFTSYWMHWVRQAPGQGLEWMGRIDPQSGGIKYAQKFQGRATLTVDTSTSTAYMELSRLRSDDTAVYYCARWDYGGYFDVWGQGTLVTVSS VL: DIQMTQSPSSLSASVGDRVTITCRASQDITNYLNWYQQKPGKAVKLLIYYTSRLHSGVPSRFSGSGSGTDYTLTISSLQPEDFATYFCAQGDTLPWTFGQGTKLEIKR | 0.01
15 | 20E6_H0.2aL1_hIgG1 VL_T51A (antibody, V domains shown) VH: EVQLVQSGAEVKKPGASVKVSCKASGYTFTSYWMHWVRQAPGQGLEWMGRIDPQSGGIKYAQKFQGRATLTVDTSTSTAYMELSRLRSDDTAVYYCARWDYGGYFDVWGQGTLVTVSS VL: DIQMTQSPSSLSASVGDRVTITCRASQDITNYLNWYQQKPGKAVKLLIYYASRLHSGVPSRFSGSGSGTDYTLTISSLQPEDFATYFCQQGDTLPWTFGQGTKLEIKR | 0.8
16 | 20E6_H0.2aL1_hIgG1 VL_S52A (antibody, V domains shown) VH: EVQLVQSGAEVKKPGASVKVSCKASGYTFTSYWMHWVRQAPGQGLEWMGRIDPQSGGIKYAQKFQGRATLTVDTSTSTAYMELSRLRSDDTAVYYCARWDYGGYFDVWGQGTLVTVSS VL: DIQMTQSPSSLSASVGDRVTITCRASQDITNYLNWYQQKPGKAVKLLIYYTARLHSGVPSRFSGSGSGTDYTLTISSLQPEDFATYFCQQGDTLPWTFGQGTKLEIKR | 0.12
17 | 20E6_H0.2aL1_hIgG1 VH_Y32A (antibody, V domains shown) VH: EVQLVQSGAEVKKPGASVKVSCKASGYTFTSAWMHWVRQAPGQGLEWMGRIDPQSGGIKYAQKFQGRATLTVDTSTSTAYMELSRLRSDDTAVYYCARWDYGGYFDVWGQGTLVTVSS VL: DIQMTQSPSSLSASVGDRVTITCRASQDITNYLNWYQQKPGKAVKLLIYYTSRLHSGVPSRFSGSGSGTDYTLTISSLQPEDFATYFCQQGDTLPWTFGQGTKLEIKR | 1
18 | 20E6_H0.2aL1_hIgG1 VL_I29A (antibody, V domains shown) VH: EVQLVQSGAEVKKPGASVKVSCKASGYTFTSYWMHWVRQAPGQGLEWMGRIDPQSGGIKYAQKFQGRATLTVDTSTSTAYMELSRLRSDDTAVYYCARWDYGGYFDVWGQGTLVTVSS VL: DIQMTQSPSSLSASVGDRVTITCRASQDATNYLNWYQQKPGKAVKLLIYYTSRLHSGVPSRFSGSGSGTDYTLTISSLQPEDFATYFCQQGDTLPWTFGQGTKLEIKR | 0.02
19 | 20E6_H0.2aL1_hIgG1 VL_T93A (antibody, V domains shown) VH: EVQLVQSGAEVKKPGASVKVSCKASGYTFTSYWMHWVRQAPGQGLEWMGRIDPQSGGIKYAQKFQGRATLTVDTSTSTAYMELSRLRSDDTAVYYCARWDYGGYFDVWGQGTLVTVSS VL: DIQMTQSPSSLSASVGDRVTITCRASQDITNYLNWYQQKPGKAVKLLIYYTSRLHSGVPSRFSGSGSGTDYTLTISSLQPEDFATYFCQQGDALPWTFGQGTKLEIKR | 0.64
